Data: US20220195023A1
Where a chain is given by its changes, count along the chain named.

B1: AB-007030 (antibody, V domains shown)
VH: QMQLVESGGGVVQPGRSLRLSCTASGFTFSTYAMHWVRQSPGQGLEWVAVISYHSTNKYYADSVRGRFTISRDNSKNTLYLQMNSLRAEDTAVYYCARDGYSSSFFDFWGQGTLVTVSS
VL: DIQMTQSPSTLSASVGDRVAITCRASQSISRWLAWYQQQPGKAPKLLMSGASVLESGVPSRFSGSGSGTEFTLTISSLQPDDFATYYCQHYNSYFVTFGQGTKVEIK
B2: AB-007072 (antibody, V domains shown)
VH: B1 VH with E46Q, A61E
VL: B1 VL with V53N
B3: AB-007041 (antibody, V domains shown)
VH: B1 VH with T31D, E46Q, A61E
VL: B1 VL
B4: AB-007040 (antibody, V domains shown)
VH: B1 VH with E46Q, A61E
VL: B1 VL with F95Y
B5: AB-007047 (antibody, V domains shown)
VH: B1 VH with T31N, E46Q, A61E
VL: B1 VL
B6: AB-007035 (antibody, V domains shown)
VH: B1 VH with T31S, E46Q, A61E
VL: B1 VL
B7: AB-007036 (antibody, V domains shown)
VH: B1 VH with E46Q, H54D, A61E
VL: B1 VL
B8: AB-007042 (antibody, V domains shown)
VH: B1 VH with E46Q, A61E
VL: B1 VL with S28D
B9: AB-007032 (antibody, V domains shown)
VH: B1 VH with M2V, T23A, S40A, E46Q, A61E
VL: B1 VL with A20T, M48I
B10: AB-007046 (antibody, V domains shown)
VH: B1 VH with E46Q, A61E
VL: B1 VL with N92Y
B11: AB-007071 (antibody, V domains shown)
VH: B1 VH with E46Q, A61E
VL: B1 VL with V53S
B12: AB-007043 (antibody, V domains shown)
VH: B1 VH with E46Q, A61E
VL: B1 VL with S56D
B13: AB-007034 (antibody, V domains shown)
VH: B1 VH with M2V, T23A, S40A
VL: B1 VL with A20T, M48I
B14: AB-007033 (antibody, V domains shown)
VH: B1 VH with T23A, S40A
VL: B1 VL with A20T
B15: AB-007028 (antibody, V domains shown)
VH: B1 VH with T23A, S40A, E46Q, A61E
VL: B1 VL with A20T
B16: AB-007044 (antibody, V domains shown)
VH: B1 VH with E46Q, A61E, D62E
VL: B1 VL
B17: AB-007038 (antibody, V domains shown)
VH: B1 VH with E46Q, A61E, F108Y
VL: B1 VL
B18: AB-007039 (antibody, V domains shown)
VH: B1 VH with E46Q, A61E
VL: B1 VL with F95S
B19: AB-007074 (antibody, V domains shown)
VH: B1 VH with T23A, S40A, E46Q, A61E
VL: B1 VL with A20T, F95Y
B20: AB-007031 (antibody, V domains shown)
VH: B1 VH with E46Q, A61E
VL: B1 VL with M48I
B21: AB-007070 (antibody, V domains shown)
VH: B1 VH with E46Q, A61E
VL: B1 VL with G50A
B22: AB-007037 (antibody, V domains shown)
VH: B1 VH with E46Q, A61E, R65K
VL: B1 VL
B23: AB-007073 (antibody, V domains shown)
VH: B1 VH with E46Q, A61E
VL: B1 VL with Y94H

What follows are binders tested against (NVDP)3(NANP)2 (Plasmodium falciparum) (assay: SPR, antibody on chip).

Binder	Kd
B1	2570 nM
B2	13800 nM
B3	3930 nM
B4	3110 nM
B5	3680 nM
B6	2690 nM
B7	16700 nM
B8	2310 nM
B9	6540 nM
B10	2810 nM
B11	4870 nM
B12	2590 nM
B13	6710 nM
B14	2680 nM
B15	2350 nM
B16	2240 nM
B17	3060 nM
B18	8250 nM
B19	3920 nM
B20	2590 nM
B21	11600 nM
B22	2690 nM
B23	19500 nM

What follows are binders tested against … (Plasmodium falciparum) (assay: SPR, antibody on chip).

Binder	Kd
B1	6520 nM
B2	38700 nM
B3	2520 nM
B4	3730 nM
B5	9370 nM
B6	9750 nM
B7	17500 nM
B8	11700 nM
B9	4830 nM
B10	11600 nM
B11	23800 nM
B12	16300 nM
B13	24100 nM
B14	2580 nM
B15	15900 nM
B16	12700 nM
B17	13100 nM
B18	14700 nM
B19	12800 nM
B20	5210 nM
B21	65300 nM
B22	2240 nM
B23	16500 nM

What follows are binders tested against (NPNA)3 (Plasmodium falciparum) (assay: SPR, antibody on chip).

Binder	Kd
B1	6.88 nM
B2	73.9 nM
B3	5.64 nM
B4	9.5 nM
B5	11.4 nM
B6	5.73 nM
B7	33.5 nM
B8	7.04 nM
B9	13.6 nM
B10	10.3 nM
B11	10.2 nM
B12	7.51 nM
B13	17 nM
B14	8.02 nM
B15	5.37 nM
B16	7.96 nM
B17	8.97 nM
B18	112 nM
B19	8.94 nM
B20	8.02 nM
B21	80.3 nM
B22	7.14 nM
B23	72 nM

These binders were tested against (NANP)6 (Plasmodium falciparum) (assay: SPR, antibody on chip).

Binder	Kd
B1	0.0537 nM
B2	0.0376 nM
B3	0.246 nM
B4	0.344 nM
B5	0.156 nM
B6	0.757 nM
B7	0.0466 nM
B8	0.998 nM
B9	1.96 nM
B10	1.27 nM
B11	0.433 nM
B12	1.11 nM
B13	0.932 nM
B14	0.0631 nM
B15	0.166 nM
B16	0.139 nM
B17	0.0281 nM
B18	0.143 nM
B19	0.665 nM
B20	0.0384 nM
B21	0.0786 nM
B22	1.73 nM
B23	0.871 nM

These binders were tested against (NVDP)3(NANP)2 (Plasmodium falciparum) (assay: BLI, target on sensor).

Binder	Kd
B1	4.03 nM
B2	14.5 nM
B3	6.65 nM
B4	4.67 nM
B5	8.11 nM
B6	5.09 nM
B7	17.4 nM
B8	3.9 nM
B9	6.68 nM
B10	11.6 nM
B11	11 nM
B12	5.2 nM
B13	6.14 nM
B14	3.47 nM
B15	4.26 nM
B16	5.99 nM
B17	5.82 nM
B18	7.26 nM
B19	7.96 nM
B20	3.5 nM
B21	14.4 nM
B22	4.44 nM
B23	18.1 nM

These binders were tested against … (Plasmodium falciparum) (assay: BLI, target on sensor).

Binder	Kd
B1	2.84 nM
B2	15.5 nM
B3	5.57 nM
B4	4.17 nM
B5	5.43 nM
B6	2.61 nM
B7	16.9 nM
B8	2.99 nM
B9	6.42 nM
B10	9.15 nM
B11	10.4 nM
B12	4.87 nM
B13	5.44 nM
B14	2.62 nM
B15	2.93 nM
B16	3.47 nM
B17	3.81 nM
B18	7.97 nM
B19	6.05 nM
B20	2.89 nM
B21	15.5 nM
B22	2.47 nM
B23	17.9 nM

Each binder was assayed against (NPNA)3 (Plasmodium falciparum) (assay: BLI, target on sensor).

Binder	Kd
B1	0.192 nM
B2	0.842 nM
B3	0.145 nM
B4	0.337 nM
B5	0.567 nM
B6	0.322 nM
B7	0.00382 nM
B8	0.00314 nM
B9	0.169 nM
B10	1.57 nM
B11	0.694 nM
B12	0.00341 nM
B13	0.00372 nM
B14	0.154 nM
B15	0.0413 nM
B16	0.239 nM
B17	0.544 nM
B18	0.812 nM
B19	0.206 nM
B20	0.003 nM
B21	0.68 nM
B22	0.0035 nM
B23	0.326 nM

The binders below were run against (NANP)6 (Plasmodium falciparum) (assay: BLI, target on sensor).

Binder	Kd
B1	0.526 nM
B2	1.65 nM
B3	0.47 nM
B4	0.56 nM
B5	1.32 nM
B6	0.927 nM
B7	0.226 nM
B8	0.0276 nM
B9	0.338 nM
B10	2.58 nM
B11	1.66 nM
B12	0.293 nM
B13	0.0899 nM
B14	0.303 nM
B15	0.501 nM
B16	0.85 nM
B17	1.34 nM
B18	1.19 nM
B19	0.601 nM
B20	0.0569 nM
B21	0.834 nM
B22	0.384 nM
B23	0.627 nM

Each binder was assayed against NANPNVDP (Plasmodium falciparum) (assay: BLI, target on sensor).

Binder	Kd
B1	7.92 nM
B2	16.9 nM
B3	12.1 nM
B4	9.56 nM
B5	10 nM
B6	9.28 nM
B7	29.6 nM
B8	8.56 nM
B9	13.9 nM
B10	11.1 nM
B11	12.9 nM
B12	10.4 nM
B13	11.5 nM
B14	8.08 nM
B15	9.18 nM
B16	8.61 nM
B17	10.9 nM
B18	15.3 nM
B19	10.2 nM
B20	7.02 nM
B21	19.8 nM
B22	8.41 nM
B23	20.3 nM
